Measured values: article doi:10.1101/2021.10.18.464900 (bioRxiv, 2021)

Columns and labels:
[1] = biological target: T1, soluble RBD of SARS-CoV-2 S protein (REF / Wuhan-1 variant) (SARS-CoV-2, UniProt P0DTC2); experiment: ELISA
[2] = biological target: RBD of SARS-CoV-2 S protein, Alpha (UK) variant (SARS-CoV-2, Alpha (B.1.1.7, UK) variant, strain); experiment: ELISA
[3] = biological target: RBD of SARS-CoV-2 S protein, Beta (SA) variant (SARS-CoV-2, Beta (B.1.351, SA), strain); experiment: ELISA
[4] = biological target: T2, SARS-CoV-2 S protein trimer (Trimer) (SARS-CoV-2, Wuhan/reference, stabilised); experiment: SPR
[5] = biological target: T1, soluble RBD of SARS-CoV-2 S protein …; experiment: SPR
[6] = biological target: T2, SARS-CoV-2 S protein trimer (Trimer); experiment: cryo-EM structure
[7] = biological target: RBD (Wuhan) expressed on the surface of HEK-293T cells (SARS-CoV-2, Wuhan, UniProt P0DTC2); experiment: flow cytometry on cells

B1: IMM20253 (antibody, V domains shown)
VH: QVQLVESGGGVVQPGRSLRLSCTASGFTFSTYGMHWVRQAPGKGLEWVAVISYDGSSKHYAESVKGRFTISRDNSNNTLYLQMNRLRAEDTAVYYCARDGQPPGWGNYFDYWGQGTLVTVAS
VL: SYVLTQPPSVSVAPGKTARITCGGNGIGSKSVYWYQQKPGQAPEVVVYDDSDRPSGIPERFSGSNSGNTATLTISRVEAGDEADYYCQVWDSSSDPWVFGGGTKLTVL
[1]
  percent inhibition of ACE2 binding: ≤ 40%
[2]
  percent inhibition of ACE2 binding: ≤ 40%
[3]
  percent inhibition of ACE2 binding: ≤ 40%
[4]
  kon: > 29500 M⁻¹ s⁻¹
[5]
  fold faster on-rate to RBD than to Trimer: 19 fold

B2: IMM20253 Fab (Fab, V domains shown)
VH: QVQLVESGGGVVQPGRSLRLSCTASGFTFSTYGMHWVRQAPGKGLEWVAVISYDGSSKHYAESVKGRFTISRDNSNNTLYLQMNRLRAEDTAVYYCARDGQPPGWGNYFDYWGQGTLVTVAS
VL: SYVLTQPPSVSVAPGKTARITCGGNGIGSKSVYWYQQKPGQAPEVVVYDDSDRPSGIPERFSGSNSGNTATLTISRVEAGDEADYYCQVWDSSSDPWVFGGGTKLTVL
[6]
  stoichiometry N: 1 Fab:Trimer

B3: IMM20190 (antibody, V domains shown)
VH: EVQLVESGGGLVQPGGSLRLSCSASGFTVSSNYMSWVRQAPRKGLEWVSVIYAGGSTFYADSVKGRFTISRDNSKNTLLLQMNSLRAEDTAVYYCARDRGGYLDYWGQGTLVTVSS
VL: DIQMTQSPSSLSASVGDRVTITCRASQGISNYLAWYQQKPGKVPKLLIYAASTLQSGVPSRFSGSGSGTDFTLTISSLQPEDVATYYCQKYNSAPGLTFGGGTKVEIK
[4]
  kon: > 29500 M⁻¹ s⁻¹
[5]
  binding result: binds
[7]
  binding result: binds

B4: IMM20190 Fab (Fab, V domains shown)
VH: EVQLVESGGGLVQPGGSLRLSCSASGFTVSSNYMSWVRQAPRKGLEWVSVIYAGGSTFYADSVKGRFTISRDNSKNTLLLQMNSLRAEDTAVYYCARDRGGYLDYWGQGTLVTVSS
VL: DIQMTQSPSSLSASVGDRVTITCRASQGISNYLAWYQQKPGKVPKLLIYAASTLQSGVPSRFSGSGSGTDFTLTISSLQPEDVATYYCQKYNSAPGLTFGGGTKVEIK
[6]
  stoichiometry N: 3 Fab:Trimer

B5: IMM20184 Fab (Fab, V domains shown)
VH: EVQLVESGGGLVQPGGSLRLSCSASGFTFSSFWMSWVRQAPGKGLEWVATIREDGSEKYYVDSVKGRFSISRDNAKNSLYLQMNSLRAEDTAVYYCARSKWLRGSFDYWGQGTLVTVSS
VL: NFMLTQPHSVSESPGKTVTISCTRRSGSIASNYVQWYQQRPGSAPTTVIYEDNQRPSGVPDRFSGSIDSSSNSASLTISGLQTEDEADYYCQSYDSSNPPGASWVFGGGTKLTVL
[6]
  stoichiometry N: 3 Fab:Trimer

B6: IMM20184 (antibody, V domains shown)
VH: EVQLVESGGGLVQPGGSLRLSCSASGFTFSSFWMSWVRQAPGKGLEWVATIREDGSEKYYVDSVKGRFSISRDNAKNSLYLQMNSLRAEDTAVYYCARSKWLRGSFDYWGQGTLVTVSS
VL: NFMLTQPHSVSESPGKTVTISCTRRSGSIASNYVQWYQQRPGSAPTTVIYEDNQRPSGVPDRFSGSIDSSSNSASLTISGLQTEDEADYYCQSYDSSNPPGASWVFGGGTKLTVL
[4]
  koff: 0.00023 s⁻¹
  kon: > 29500 M⁻¹ s⁻¹
[5]
  fold faster on-rate to RBD than to Trimer: 17 fold
  koff: 0.0013 s⁻¹
